Like-named read-outs stand apart in the source and are kept apart here. Where no end group is shown, it is not given here. [ ]: non-standard residue; d: D form. Nle = CCCC[C@H](N)C(=O)O

The values that follow come from patent US20260146071A1, “CCR2 INHIBITORS AND METHODS OF USE” (ORION BIOTECHNOLOGY USA Corp., priority 2022, published 2026).

The assay deals with T1, CCR2 (Homo sapiens, UniProt P41597).
T1 construct: endogenous in cells; host or cells: THP-1
T1 sequence (P41597 1-360 isoform P41597-2): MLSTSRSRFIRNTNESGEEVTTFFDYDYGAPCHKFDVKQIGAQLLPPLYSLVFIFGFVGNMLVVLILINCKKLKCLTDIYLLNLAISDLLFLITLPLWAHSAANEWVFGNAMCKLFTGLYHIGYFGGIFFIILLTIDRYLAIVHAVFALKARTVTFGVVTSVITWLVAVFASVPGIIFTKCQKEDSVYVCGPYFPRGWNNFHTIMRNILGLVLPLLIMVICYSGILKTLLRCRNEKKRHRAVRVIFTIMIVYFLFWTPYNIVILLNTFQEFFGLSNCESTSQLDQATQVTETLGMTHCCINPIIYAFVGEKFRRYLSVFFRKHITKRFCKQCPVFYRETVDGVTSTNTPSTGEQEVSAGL
The experiment in a line: CCR2 inhibitory potency assay, calcium flux method, THP-1 cells stimulated with 100 nM CCL2. The assay is classed as cell-based. The method, then:
CCR2 inhibitory potency assay was determined using the calcium flux method.
Ca^2+ flux measurements were performed using an FDSS micro-cell device ([…]). On the day of the experiment, THP-1 cells were seeded 20000 cells/well) to wells of black-walled clear-bottom 384-well plates.
THP-1 cells were loaded with a calcium-sensitive fluorescent dye (Screen Quest™ Fluo-8 No Wash Calcium Assay Kit, AAT Bioquest) according to the manufacturer's instructions, then a first addition of either test sample dilutions or vehicle alone were added. 5 minutes later, cells were stimulated with 100 nM CCL2.

Where [1] appears, read: Table 4, CCR2 inhibition, read-out: mean IC50.
Where [2] appears, read: Table 3, CCR2 inhibition, read-out: mean IC50.

As a reminder, the IC50 is the point on the concentration scale where inhibition reaches its midpoint. Consider “CCL2 variant, N-terminal FTNPTWSQGV (SEQ ID NO: 94), human CCL2 11-76 Met64Nle core (not fully specified (C-terminus); also: followed C-terminally by human CCL2 11-76 core with Met64Nle) [3P19-CCL2]”, for which the half-maximal inhibitory concentration (IC50) under setting [1] turned out to be 0.914 nM. The same measure, in the same setting: as for “CCL2 variant, N-terminal FTNPTWDSVT (SEQ ID NO: 98), human CCL2 11-76 Met64Nle core (not fully specified (C-terminus); also: followed C-terminally by human CCL2 11-76 core with Met64Nle) [3P23-CCL2]”, the figure is 0.678 nM; as for “CCL2 variant, N-terminal FTNPTWKPST (SEQ ID NO: 90), human CCL2 11-76 Met64Nle core (not fully specified (C-terminus); also: followed C-terminally by human CCL2 11-76 core with Met64Nle) [3P15-CCL2]”, 1.53 nM; as for “CCL2 variant, N-terminal FP(Nle)DGWRGET (SEQ ID NO: 110), human CCL2 11-76 Met64Nle core (FP[Nle]DGWRGET; also: followed by human CCL2 11-76 core with Met64Nle) [4P6-CCL2]”, 1.45 nM. In the case of “CCL2 variant, N-terminal TPGHYRAPVT (SEQ ID NO: 39), human CCL2 Met64Nle core [CCL2-M64Nle-2P3]”, the IC50 under setting [2] amounted to 225 nM. On the same count and under the same terms, in the case of “CCL2 variant, N-terminal AFSIMQAPVT (SEQ ID NO: 15), human CCL2 Met64Nle core [CCL2-M64Nle-1P8]” it was 12 nM. Take “CCL2 variant, N-terminal FTNPTWAPLQ (SEQ ID NO: 83), human CCL2 11-76 Met64Nle core [3P8-CCL2]”: under setting [1], the IC50 amounted to 0.892 nM. Regarding “CCL2 variant, N-terminal FP(Nle)DGWRGLV (SEQ ID NO: 136), human CCL2 11-76 Met64Nle core (FP[Nle]DGWRGLV; also: followed by human CCL2 11-76 core with Met64Nle) [4P20-CCL2]”, the concentration for half-maximal inhibition (IC50) under setting [1] came to 0.93 nM. Consider “CCL2 variant, N-terminal FTNPTWDRFT (SEQ ID NO: 87), human CCL2 11-76 Met64Nle core (not fully specified (C-terminus); also: followed C-terminally by human CCL2 11-76 core with Met64Nle) [3P12-CCL2]”, for which the concentration for half-maximal inhibition (IC50) under setting [1] worked out at 0.625 nM. Take “CCL2 variant, N-terminal VPDWSQAPVT (SEQ ID NO: 18), human CCL2 Met64Nle core [CCL2-M64Nle-1P22]”: under setting [2], the half-inhibitory concentration (IC50) worked out at 15.3 nM. Take “CCL2 variant, N-terminal RPYLWKAPVT (SEQ ID NO: 12), human CCL2 Met64Nle core [CCL2-M64Nle-2P5]”: under setting [2], the half-inhibitory concentration (IC50) came out at 5.83 nM. “CCL2 variant, N-terminal FTNPTWDPFT (SEQ ID NO: 95), human CCL2 11-76 Met64Nle core [3P20-CCL2]”: the IC50 under setting [1] is 0.718 nM. As to `CC(=O)N[C@@H]1C[C@H](NC(C)(C)C)CC[C@@H]1N1CC[C@H](Nc2ncnc3cc(C(C)(C)C)nn23)C1=O` [BMS-813160, reference compound], the half-inhibitory concentration (IC50) (FIG. 5, calcium flux, THP-1 cells, read-out: IC50 (compiled data from four experiments, mean pIC50) (converted)) was 9.8 nM. Moreover, for the setting “compiled data from four experiments”, the “fold less potent than 1P2-CCL2” value was 5.76 fold. Take “CCL2 variant, N-terminal FTNPTWDTQV (SEQ ID NO: 79), human CCL2 11-76 Met64Nle core (not fully specified (C-terminus); also: followed C-terminally by human CCL2 11-76 core with Met64Nle) [3P4-CCL2]”: the half-maximal inhibitory concentration (IC50) under setting [1] was determined as 0.646 nM. With “CCL2 variant, N-terminal VTNPTWAPVT (SEQ ID NO: 20), human CCL2 Met64Nle core [CCL2-M64Nle-1P02-F1V]”, the 50% inhibitory concentration (IC50) under setting [2] amounted to 24.6 nM. With “CCL2 variant, N-terminal FTNPTWSGVT (SEQ ID NO: 81), human CCL2 11-76 Met64Nle core (not fully specified (C-terminus); also: followed C-terminally by human CCL2 11-76 core with Met64Nle) [3P6-CCL2]”, the 50% inhibitory concentration (IC50) under setting [1] was 1.27 nM. Take “CCL2 variant, N-terminal TPGH(Nle)KAPVT (SEQ ID NO: 37), human CCL2 Met64Nle core [CCL2-M64Nle-2P4]”: under setting [2], the IC50 was 183 nM.
